Measured values taken from the Human Domainome abundance scans (Beltran et al. 2025).
± gives the uncertainty stated by the source.

B1: Ubiquitin-protein ligase residues 30 to 86; numbered along this chain, Q05086 (parent)
chain: KHLIERYYHQLTEGCGNEACTNEFCASCPTFLRMDNNAAAIKALELYKINAKLCDPH

Variants of: B1
Experiment: abundance fitness (aPCA) (normalised: wild type 0, dead -1); higher = more abundant; growth selection in yeast, the domain comes from the species named
Settings: Homo sapiens

Variant	abundance fitness
Q10S	-0.093 ± 0.064
Q10T	-0.123 ± 0.07
Q10V	-0.253 ± 0.052
Q10W	-0.765 ± 0.079
Q10Y	-0.277 ± 0.11
L11C	-0.153 ± 0.064
L11D	-0.834 ± 0.1
L11E	-0.843 ± 0.081
L11G	-0.681 ± 0.053
L11K	-0.848 ± 0.1
L11M	-0.14 ± 0.081
L11N	-0.774 ± 0.13
L11P	-0.865 ± 0.13
L11Q	-0.41 ± 0.086
L11R	-0.872 ± 0.066
L11S	-0.425 ± 0.057
L11T	-0.201 ± 0.071
L11V	-0.036 ± 0.051
L11W	-0.904 ± 0.08
L11Y	-0.566 ± 0.11
T12A	-0.128 ± 0.058
T12D	-0.353 ± 0.1
T12E	-0.355 ± 0.079
T12F	-0.204 ± 0.12

Variant	abundance fitness
T12G	-0.569 ± 0.055
T12I	-0.062 ± 0.074
T12L	-0.015 ± 0.056
T12M	0.03 ± 0.077
T12P	-0.998 ± 0.11
T12Q	-0.079 ± 0.071
T12R	-0.073 ± 0.052
T12S	-0.039 ± 0.063
T12V	-0.028 ± 0.058
T12W	-0.359 ± 0.069
E13A	0.029 ± 0.058
E13D	0.055 ± 0.087
E13F	-0.047 ± 0.099
E13H	-0.006 ± 0.1
E13I	-0.048 ± 0.086
E13K	0.041 ± 0.075
E13L	0.006 ± 0.053
E13M	-0.093 ± 0.075
E13P	-1.02 ± 0.1
E13Q	0.06 ± 0.082
E13R	-0.02 ± 0.056
E13S	0.008 ± 0.056
E13T	-0.009 ± 0.061
E13V	-0.071 ± 0.053

Variant	abundance fitness
E13W	-0.163 ± 0.073
E13Y	-0.01 ± 0.099
G14A	-0.866 ± 0.072
G14D	-0.945 ± 0.11
G14E	-0.919 ± 0.1
G14F	-0.865 ± 0.13
G14H	-0.957 ± 0.16
G14I	-1.02 ± 0.17
G14L	-0.967 ± 0.07
G14N	-0.849 ± 0.15
G14Q	-1.09 ± 0.12
G14R	-0.966 ± 0.072
G14S	-0.946 ± 0.075
G14T	-0.848 ± 0.08
G14V	-0.973 ± 0.072
G14W	-0.942 ± 0.1
G14Y	-1.02 ± 0.14
C15A	-0.789 ± 0.062
C15D	-0.796 ± 0.1
C15E	-0.943 ± 0.18
C15F	-0.885 ± 0.12
C15G	-0.973 ± 0.091
C15H	-0.576 ± 0.1
C15L	-1 ± 0.084

Variant	abundance fitness
C15M	-1.04 ± 0.12
C15N	-0.981 ± 0.12
C15P	-1.09 ± 0.14
C15Q	-0.85 ± 0.098
C15R	-0.912 ± 0.072
C15S	-1.07 ± 0.094
C15T	-0.833 ± 0.093
C15W	-0.969 ± 0.099
C15Y	-0.944 ± 0.1
G16A	-0.049 ± 0.055
G16C	-0.049 ± 0.071
G16D	-0.041 ± 0.073
G16E	-0.049 ± 0.06
G16F	-0.221 ± 0.12
G16I	-0.33 ± 0.14
G16K	-0.064 ± 0.082
G16L	-0.11 ± 0.054
G16M	-0.179 ± 0.065
G16N	-0.061 ± 0.12
G16P	-0.132 ± 0.071
G16Q	-0.059 ± 0.078
G16R	-0.127 ± 0.049
G16S	-0.062 ± 0.057
G16V	-0.2 ± 0.049

Variant	abundance fitness
G16W	-0.191 ± 0.063
G16Y	-0.117 ± 0.1
N17A	-0.001 ± 0.051
N17C	-0.037 ± 0.055
N17D	-0.04 ± 0.059
N17E	-0.029 ± 0.092
N17F	-0.091 ± 0.05
N17G	-0.008 ± 0.058
N17H	-0.008 ± 0.046
N17I	-0.067 ± 0.046
N17K	0.027 ± 0.071
N17L	-0.071 ± 0.044
N17M	-0.096 ± 0.065
N17P	-0.091 ± 0.048
N17Q	-0.087 ± 0.067
N17R	-0.042 ± 0.047
N17S	-0.034 ± 0.044
N17T	0.014 ± 0.047
N17V	-0.05 ± 0.051
N17W	0.005 ± 0.078
N17Y	-0.042 ± 0.05
E18A	0 ± 0.063
E18C	-0.044 ± 0.089
E18D	-0.004 ± 0.087

Variant	abundance fitness
E18F	-0.181 ± 0.13
E18G	-0.054 ± 0.053
E18H	0.014 ± 0.097
E18I	-0.075 ± 0.15
E18K	-0.089 ± 0.084
E18L	-0.056 ± 0.06
E18M	0.006 ± 0.09
E18N	0.061 ± 0.13
E18Q	0.076 ± 0.075
E18R	-0.066 ± 0.056
E18S	0.001 ± 0.064
E18T	-0.003 ± 0.077
E18V	-0.023 ± 0.058
E18W	-0.151 ± 0.075
E18Y	-0.071 ± 0.11
A19C	-0.12 ± 0.085
A19D	0.023 ± 0.078
A19E	0.004 ± 0.062
A19F	-0.031 ± 0.093
A19G	-0.015 ± 0.05
A19H	-0.006 ± 0.1
A19I	-0.102 ± 0.11
A19K	-0.001 ± 0.078
A19L	-0.045 ± 0.053

Variant	abundance fitness
A19M	0.011 ± 0.067
A19N	-0.015 ± 0.087
A19P	-0.084 ± 0.062
A19R	-0.022 ± 0.051
A19S	-0.008 ± 0.055
A19V	-0.013 ± 0.051
A19W	-0.073 ± 0.063
A19Y	-0.1 ± 0.11
C20D	-0.883 ± 0.45
C20E	-1.02 ± 0.25
C20F	-0.889 ± 0.16
C20G	-0.86 ± 0.061
C20I	-0.941 ± 0.22
C20K	-1.13 ± 0.26
C20L	-1.03 ± 0.091
C20M	-1.08 ± 0.12
C20N	-1.1 ± 0.31
C20P	-1.03 ± 0.12
C20Q	-0.893 ± 0.37
C20S	-0.821 ± 0.078
C20V	-1.02 ± 0.083
C20W	-0.98 ± 0.088
C20Y	-0.717 ± 0.36
